{"source": "paper PMC7565430", "about": "“An Unbiased Immunization Strategy Results in the Identification of Enolase as a Potential Marker for Nanobody-Based Detection of Trypanosoma evansi” (Vaccines, 2020)", "molecules": {"B1": {"name": "NbR1-10 (VHH)", "VHH": "QVQLQESGGGLVQPGGSLRLSCAAPGSIFSIFSGNIMGWYRQAPGKQRDFVASISSGGATNYADSVKGRFTISRDNAKNTVYLQMNNLKPEDTAVYYCNTVGGVHTNSWGQGTQVTVSS", "notes": "alpaca Nanobody; source: E. coli WK6, periplasmic extract, purified (His-Select Nickel resin, SEC)"}}, "key": {"[1]": {"tested_on": "T1, TevENO (T. evansi enolase)", "T1 construct": "gene ENO; recombinant, codon-optimised gene in pET21b, E. coli BL21(DE3); N-terminal His6 tag and TEV cleavage site, tag cleavage not described", "test": "PYK/LDH coupled assay, NADH absorbance at […] nm, Michaelis-Menten fit", "assay_type": "biochemical, Trypanosoma evansi", "conditions": "0.1 M triethanolamine/HCl, pH 7.6, 25 °C, 2 mM MgSO4, 17 mM KCl, 1.1 mM ADP, 0.42 mM NADH; 2-PGA 0 to 1 mM"}, "[2]": {"molecular_target": "recombinant Trypanosoma evansi enolase (TevENO), His-tagged (Trypanosoma evansi)", "test": "SEC; analytical SEC, ENrich SEC 650 10 x 300 column, buffer A (50 mM sodium phosphate, 5 mM MgCl2, pH 7.0); 500 μg TevENO, 168.9 μg Nb11, or mixtures at TevENO:Nb11 monomer ratios 2:1, 2:2, 2:3, 2:4 incubated 1 h; peaks analysed by SDS-PAGE"}, "[3]": {"molecular_target": "T2, recombinant Trypanosoma evansi enolase (TevENO), His-tagged (Trypanosoma evansi)", "T2 construct": "monomer MM = 48.41 kDa as printed; also called T. evansi enolase; recombinant TevENO; source: E. coli BL21 (DE3), purified (IMAC, SEC)", "T2 chain": "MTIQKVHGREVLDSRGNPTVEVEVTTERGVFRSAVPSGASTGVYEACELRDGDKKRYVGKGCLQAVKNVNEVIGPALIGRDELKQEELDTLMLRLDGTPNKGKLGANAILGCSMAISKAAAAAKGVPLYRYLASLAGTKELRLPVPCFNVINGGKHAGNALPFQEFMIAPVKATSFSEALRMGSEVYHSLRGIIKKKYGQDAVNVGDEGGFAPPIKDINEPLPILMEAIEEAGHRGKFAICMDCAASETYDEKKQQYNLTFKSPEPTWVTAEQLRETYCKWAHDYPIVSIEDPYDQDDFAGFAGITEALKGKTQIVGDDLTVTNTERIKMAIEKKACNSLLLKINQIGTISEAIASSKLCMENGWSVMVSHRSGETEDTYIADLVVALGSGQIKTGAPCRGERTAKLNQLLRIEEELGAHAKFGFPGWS", "test": "ELISA; heterologous sandwich ELISA: His-tagged Nb11 coated at 1 μg/mL, TevENO 1 μg/mL in PBS, HA-tagged detection Nb at 1 μg/mL", "conditions": "both partners purified"}}, "data": [{"molecule": "O=C(O)[C@@H](CO)OP(=O)(O)O", "note": "[2-PGA, 2-phosphoglycerate]", "values": [{"measurement": "Km", "setting": "[1]", "result": 52, "unit": "µM"}]}, {"molecule": "recombinant Trypanosoma evansi enolase (TevENO), His-tagged (enzyme)", "values": [{"measurement": "stoichiometry N", "setting": "[2]", "result": 2}]}, {"molecule": "B1", "values": [{"measurement": "binding result", "setting": "[3]", "result": "binds"}]}]}
